From US20250250314

B1: Matrix Metalloproteinase 1 (protein)
chain: FVLTEGNPRWEQTHLTYRIENYTPDLPRADVDHAIEKAFQLWSNVTPLTFTKVSEGQADIMISFVRGDHRDNSPFDGPGGNLAHAFQPGPGIGGDAHFDEDERWTNNFREYNLHRVAAHELGHSLGLSHSTDIGALMYPSYTFSGDVQLAQDDIDGIQAIYGRSQNPVQPIGPQTPKACDSKLTFDAITTIRGEVMFFKDRFYMRTNPFYPEVELNFISVFWPQLPNGLEAAYEFADRDEVRFFKGNKYWAVQGQNVLHGYPKDIYSSFGFPRTVKHIDAALSEENTGKTYFFVANKYWRYDEYKRSMDPGYPKMIAHDFPGIGHKVDAVFMKDGFFYFFHGTRQYKFDPKTKRILTLQKANSWFNCRKN
B2: MMP2 (protein)
chain: YNFFPRKPKWDKNQITYRIIGYTPDLDPETVDDAFARAFQVWSDVTPLRFSRIHDGEADIMINFGRWEHGDGYPFDGKDGLLAHAFAPGTGVGGDSHFDDDELWTLGEGQVVRVKYGNADGEYCKFPFLFNGKEYNSCTDTGRSDGFLWCSTTYNFEKDGKYGFCPHEALFTMGGNAEGQPCKFPFRFQGTSYDSCTTEGRTDGYRWCGTTEDYDRDKKYGFCPETAMSTVGGNSEGAPCVFPFTFLGNKYESCTSAGRSDGKMWCATTANYDDDRKWGFCPDQGYSLFLVAAHEFGHAMGLEHSQDPGALMAPIYTYTKNFRLSQDDIKGIQELYGASPDIDLGTGPTPTLGPVTPEICKQDIVFDGIAQIRGEIFFFKDRFIWRTVTPRDKPMGPLLVATFWPELPEKIDAVYEAPQEEKAVFFAGNEYWIYSASTLERGYPKPLTSLGLPPDVQRVDAAFNWSKNKKTYIFAGDKFWRYNEVKKKMDPGFPKLIADAWNAIPDNLDAVVDLQGGGHSYFFKGAYYLKLENQSLKSVKFGSIKSDWLGC

Target: UCM12
Sequence (chain, as listed by the source, chain 1 of 3, other chains not shown): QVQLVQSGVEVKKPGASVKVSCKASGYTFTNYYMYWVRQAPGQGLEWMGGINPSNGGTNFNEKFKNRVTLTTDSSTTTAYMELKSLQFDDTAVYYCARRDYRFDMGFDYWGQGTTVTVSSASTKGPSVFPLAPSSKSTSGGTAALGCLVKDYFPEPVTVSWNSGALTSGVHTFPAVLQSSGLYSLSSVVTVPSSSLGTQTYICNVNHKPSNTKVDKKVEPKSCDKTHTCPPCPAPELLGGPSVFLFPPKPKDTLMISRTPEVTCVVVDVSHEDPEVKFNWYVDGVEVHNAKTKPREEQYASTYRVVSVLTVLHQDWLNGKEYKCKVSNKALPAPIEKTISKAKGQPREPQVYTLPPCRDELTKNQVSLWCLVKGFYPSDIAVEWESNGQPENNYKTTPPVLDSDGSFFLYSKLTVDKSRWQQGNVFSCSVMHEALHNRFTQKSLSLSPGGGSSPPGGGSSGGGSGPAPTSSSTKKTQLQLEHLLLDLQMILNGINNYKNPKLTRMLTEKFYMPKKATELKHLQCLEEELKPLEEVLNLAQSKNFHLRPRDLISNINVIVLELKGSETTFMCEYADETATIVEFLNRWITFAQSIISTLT
Sequence (chain, as listed by the source, chain 2 of 3, other chains not shown): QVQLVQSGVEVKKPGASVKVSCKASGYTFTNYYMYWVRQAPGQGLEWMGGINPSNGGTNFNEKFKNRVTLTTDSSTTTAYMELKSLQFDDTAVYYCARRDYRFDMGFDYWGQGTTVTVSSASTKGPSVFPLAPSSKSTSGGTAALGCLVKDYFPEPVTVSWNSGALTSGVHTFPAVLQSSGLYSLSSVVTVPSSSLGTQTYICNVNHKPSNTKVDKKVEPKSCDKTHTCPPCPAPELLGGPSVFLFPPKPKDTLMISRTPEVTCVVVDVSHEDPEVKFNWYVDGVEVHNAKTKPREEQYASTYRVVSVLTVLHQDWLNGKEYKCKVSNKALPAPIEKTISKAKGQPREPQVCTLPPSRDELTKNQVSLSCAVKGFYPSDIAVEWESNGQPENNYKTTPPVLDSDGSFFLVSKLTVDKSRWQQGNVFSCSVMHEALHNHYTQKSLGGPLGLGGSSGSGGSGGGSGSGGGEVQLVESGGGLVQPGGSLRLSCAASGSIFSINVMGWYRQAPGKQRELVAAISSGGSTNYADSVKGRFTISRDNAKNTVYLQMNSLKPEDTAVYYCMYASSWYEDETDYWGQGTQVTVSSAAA

Row | Protein | kcat/Km
1 | B1 | 230 M⁻¹ s⁻¹
2 | B2 | 1900 M⁻¹ s⁻¹
